Test results as given in US20040058357.

Target: PKCβII (mouse brain homogenates), P68404
Sequence (P68404 other isoform, or with tags, fused parts or gaps): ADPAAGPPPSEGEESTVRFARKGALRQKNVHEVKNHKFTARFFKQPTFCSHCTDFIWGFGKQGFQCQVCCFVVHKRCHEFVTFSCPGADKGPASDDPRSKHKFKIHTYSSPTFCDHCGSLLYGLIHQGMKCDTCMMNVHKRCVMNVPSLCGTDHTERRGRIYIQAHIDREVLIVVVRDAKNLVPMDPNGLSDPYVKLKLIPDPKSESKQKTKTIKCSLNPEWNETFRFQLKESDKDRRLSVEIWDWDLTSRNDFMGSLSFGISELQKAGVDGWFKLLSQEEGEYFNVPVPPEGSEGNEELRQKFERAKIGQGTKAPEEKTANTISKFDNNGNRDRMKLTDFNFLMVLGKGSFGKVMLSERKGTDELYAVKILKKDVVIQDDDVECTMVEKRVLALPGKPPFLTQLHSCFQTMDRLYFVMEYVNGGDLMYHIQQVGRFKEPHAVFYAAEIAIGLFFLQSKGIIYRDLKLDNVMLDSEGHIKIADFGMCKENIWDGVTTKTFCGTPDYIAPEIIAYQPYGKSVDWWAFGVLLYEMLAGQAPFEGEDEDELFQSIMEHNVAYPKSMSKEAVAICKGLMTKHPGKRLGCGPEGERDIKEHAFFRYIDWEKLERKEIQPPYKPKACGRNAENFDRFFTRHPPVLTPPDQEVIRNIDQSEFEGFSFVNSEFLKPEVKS

B1: AChE-R overexpressed in AChE-R transgenic mice (protein)
chain: EGREDAELLVTVRGGRLRGIRLKTPGGPVSAFLGIPFAEPPMGPRRFLPPEPKQPWSGVVDATTFQSVCYQYVDTLYPGFEGTEMWNPNRELSEDCLYLNVWTPYPRPTSPTPVLVWIYGGGFYSGASSLDVYDGRFLVQAERTVLVSMNYRVGAFGFLALPGSREAPGNVGLLDQRLALQWVQENVAAFGGDPTSVTLFGESAGAASVGMHLLSPPSRGLFHRAVLQSGAPNGPWATVGMGEARRRATQLAHLVGCPPGGTGGNDTELVACLRTRPAQVLVNHEWHVLPQESVFRFSFVPVVDGDFLSDTPEALINAGDFHGLQVLVGVVKDEGSYFLVYGAPGFSKDNESLISRAEFLAGVRVGVPQVSDLAAEAVVLHYTDWLHPEDPARLREALSDVVGDHNVVCPVAQLAGRLAAQGARVYAYVFEHRASTLSWPLWMGVPHGYEIEFIFGIPLDPSRNYTAEEKIFAQRLMRYWANFARTGDPNEPRDPKAPQWPPYTAGAQQYVSLDLRPLEVRRGLRAQACAFWNRFLPKLLSATGMQGPAGSAGRRGVGARQCNPSLLPLASE
PKC activity in brain homogenates (PKC assay kit, Upstate Biotechnology): Note the elevation of PKC activity in the different brain regions in the AChE-R transgenics as compered to FVB/N controls
